Laboratory results from patent publication US20180186871A1.
Positions count from the first letter of the chain named. Values belong to the binder of their own block, whether it stands above or below them.

Target: T1, murine IL-11 (mouse) (UniProt P47873)
T1 sequence (looked up): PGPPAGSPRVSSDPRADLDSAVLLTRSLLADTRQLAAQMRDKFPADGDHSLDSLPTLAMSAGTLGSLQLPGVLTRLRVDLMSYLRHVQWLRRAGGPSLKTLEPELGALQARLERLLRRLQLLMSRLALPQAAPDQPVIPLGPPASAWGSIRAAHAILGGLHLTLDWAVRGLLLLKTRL
Assay: ELISA binding signal

mIL11 - average signal: 0.372
B1: YU100-A11 (scFv)
scFv: EVQLQQSGGGVVQPGRSLRLSCAASGFTFSSYGMHWVRQAPGKGLEWVAVISYDGSNKYYADSVKGRFTISRDNSKNTLYLQMNSLRAEDTAVYYCAKIGATDPLDYWGQGTLVTVSSGSASAPKLEEGEFSEARVQSALTQPRSVSGSPGQSVTISCTGTSSDVGGYNYVSWYQQHPGKAPKLMIYDVSKRPSGVPDRFSGSKSGNTASLTISGLQAEDEADYYCCSYAGSYTWVFGGGTKLTVL

mIL11 - average signal: 0.247
B2: YU100-E07 (scFv)
scFv: B1 scFv with E1Q, Q6E, K58R, T69A, N169D, K183E, S190T, P197A, S232R

mIL11 - average signal: 0.188
B3: YU100-H02 (scFv)
scFv: QVQLQQSGGGVVQPGRSLRLSCAASGFTFSSYGMHWVRQAPGKGLEWVAVISYDGSNKYYADSVKGRFTISRDNSKNTLYLQMNSLRAEDTAVYYCARIMGYDYGDYDVVDYWGQGTLVTVSSGSASAPKLEEGEFSEARVQSALTQPRSVSRSPGQSVTISCTGTSSDVGTYNYVSWYQQHPGKAPKLMIYDVSKRPSGVPDRFSGSKSGNTASLTISGLQAEDEADYYCCSYAGFYTWVFGGGTKLTVL

mIL11 - average signal: 0.601
B4: YU112-F05 (scFv)
scFv: EVQLVQSGGGVVQPGRSLRLSCAASGFTFGSYGMHWVRQAPGKGLEWVAVISYDGSNKYYADSVKGRFTISRDNSKNTLYLQMNSLRAEDTAVYYCAKIGATDPLDYWGQGTLVTVSSGSASAPKLEEGEFSEARVQSALTQPRSVSGSPGQSVTISCTGTSSDVGGYNYVSWYQQHPGKAPKLIIYDVNNRPSGVSNRFSASKSGNTASLTISGLQAEDEADYYCNSYTSGSTWVFGGGTKLTVL
